Experimental findings from patent publication US20140087995A1 (published 2014) are described below.

Assay [1] concerns the target T1, human amylin receptor (amylin 3(a) receptor: human calcitonin receptor co-expressed with RAMP-3) (human, UniProt P30988 25-474; O60896 24-148, limits assumed).
T1 sequence (looked up) 1: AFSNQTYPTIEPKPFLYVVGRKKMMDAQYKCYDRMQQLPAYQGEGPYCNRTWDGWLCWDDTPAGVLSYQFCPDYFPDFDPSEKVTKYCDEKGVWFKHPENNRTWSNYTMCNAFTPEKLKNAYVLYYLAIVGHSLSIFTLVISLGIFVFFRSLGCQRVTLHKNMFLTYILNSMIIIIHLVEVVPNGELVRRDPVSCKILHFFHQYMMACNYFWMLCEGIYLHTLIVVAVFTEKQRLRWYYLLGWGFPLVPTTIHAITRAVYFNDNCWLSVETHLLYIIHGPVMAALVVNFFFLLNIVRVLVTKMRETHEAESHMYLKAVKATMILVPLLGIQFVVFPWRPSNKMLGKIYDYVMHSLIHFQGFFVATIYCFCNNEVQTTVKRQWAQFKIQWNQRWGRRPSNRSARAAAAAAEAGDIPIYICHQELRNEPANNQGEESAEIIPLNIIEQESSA
T1 sequence (looked up) 2: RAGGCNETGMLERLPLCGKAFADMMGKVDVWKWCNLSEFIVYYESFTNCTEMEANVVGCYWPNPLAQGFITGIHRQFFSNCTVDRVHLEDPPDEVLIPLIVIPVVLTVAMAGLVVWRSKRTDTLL
The assay is described as follows: cell-based or functional assay.

Assay [2] concerns the target T2, human calcitonin receptor (human, UniProt P30988 25-474).
T2 sequence (looked up): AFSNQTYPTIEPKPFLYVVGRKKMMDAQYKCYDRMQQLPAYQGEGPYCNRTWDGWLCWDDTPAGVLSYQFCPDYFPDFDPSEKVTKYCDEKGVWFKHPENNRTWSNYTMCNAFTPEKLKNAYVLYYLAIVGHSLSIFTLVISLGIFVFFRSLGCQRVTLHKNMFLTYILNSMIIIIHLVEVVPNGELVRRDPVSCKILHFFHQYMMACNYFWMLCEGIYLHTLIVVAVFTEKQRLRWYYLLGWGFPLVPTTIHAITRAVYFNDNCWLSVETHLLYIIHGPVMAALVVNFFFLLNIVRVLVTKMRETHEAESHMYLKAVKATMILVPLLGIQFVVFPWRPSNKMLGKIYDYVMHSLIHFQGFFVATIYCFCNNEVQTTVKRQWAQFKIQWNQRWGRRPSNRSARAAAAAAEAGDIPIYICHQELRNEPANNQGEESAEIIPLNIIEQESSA
The experiment in a line: cell-based or functional assay.

The target of assay [3] is T1, human amylin receptor (amylin 3(a) …). The assay is described as follows: SPA competition binding on membranes of Amylin 3(a)/CRE-luc BHK cells, displacement of 125I-rat amylin (Assay V). How it is done:
(§1) The binding assay was performed using scintillation proximity assay (SPA) beads (RPNQ0001) from PerkinElmer and cell membranes from the Amylin 3(a)/CRE-luc cells (as described in Assay (II)) were used. Membranes were prepared in the following way; the cells were rinsed with PBS and incubated with Versene for approximately 5 min before harvesting. The cells were flushed with PBS and the cell-suspension was centrifuged for 5 min at 1000 rpm. Cells were homogenized (ultrathurrax) in a buffer containing 20 mM Na-HEPES and 10 mM EDTA (pH 7.4) and centrifuged at 20.000 rpm for 15 min. The resulting pellet was resuspended, homogenized and centrifuged (20.000 rpm, 15 min) in a buffer containing 20 mM Na-HEPES and 0.1 mM EDTA (pH 7.4, buffer 2). The resulting pellet was resuspended in buffer 2 and protein concentration was measured (BCA protein Assay, Pierce). The homogenate was kept cold during the whole procedure. The membranes were kept at −80° C. until use. The assay was performed in a 384 well Optiplate (PerkinElmer) in a total volume of 40 ul. Membranes were mixed with SPA beads. Final concentration of membranes 35 ng/μL final and SPA beads was 0.05 mg/well. […] Samples were analyzed on TopCounter™ (Packard). The IC₅₀ was calculated using (one site binding competition analysis) GraphPad Prism5 as a measure of receptor affinity.
Background: In a radioligand displacement assay an active substance lowers the binding of a labelled ligand.

The target of assay [4] is T3, human amylin 3(a) receptor (human calcitonin receptor co-expressed with RAMP-3) (human, UniProt P30988 25-474; O60896 24-148, limits assumed).
T3 construct: whole, on cells; Whole BHK amylin 3(a)-receptor/CRE-luc cells in the functional assay (Assay II a); also called hAmylin-R; hAmylinR
T3 sequence (looked up) 1: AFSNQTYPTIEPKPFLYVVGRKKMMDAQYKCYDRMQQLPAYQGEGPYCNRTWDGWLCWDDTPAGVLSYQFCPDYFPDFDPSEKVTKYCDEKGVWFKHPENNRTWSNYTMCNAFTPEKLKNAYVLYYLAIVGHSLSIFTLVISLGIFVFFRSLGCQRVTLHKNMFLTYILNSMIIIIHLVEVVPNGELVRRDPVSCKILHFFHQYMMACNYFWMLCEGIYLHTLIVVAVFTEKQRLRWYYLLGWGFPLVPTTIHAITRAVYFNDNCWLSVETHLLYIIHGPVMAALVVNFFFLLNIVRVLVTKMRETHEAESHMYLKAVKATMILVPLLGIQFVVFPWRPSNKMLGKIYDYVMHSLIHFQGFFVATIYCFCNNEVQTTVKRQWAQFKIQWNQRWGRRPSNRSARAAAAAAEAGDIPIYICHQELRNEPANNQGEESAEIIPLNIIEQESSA
T3 sequence (looked up) 2: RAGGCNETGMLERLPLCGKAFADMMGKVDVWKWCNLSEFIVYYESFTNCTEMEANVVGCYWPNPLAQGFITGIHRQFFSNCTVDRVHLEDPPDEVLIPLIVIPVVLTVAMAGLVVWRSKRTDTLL
The assay is described as follows: SPA competition vs 125I-rat amylin, membranes of BHK Amylin 3(a)/CRE-luc cells (Assay V). On the procedure: as §1

Assay [5] concerns the target T3, human amylin 3(a) receptor (human …). The assay is described as follows: cell-based or functional assay.

Numbered stars: 1 amine (or outer) side, 2 acyl side, 3 side chain; on linkers, the order of the positions; unused ones are H or OH. Bridge positions count the residues as written; N and C are the ends. Side chains are listed from the residue outwards. Ends that are not written are not given here. * marks the point of attachment. C20 diacid = O=C(O)CCCCCCCCCCCCCCCCCCC(=O)*; γGlu = O=C(O)[C@H](CCC(=O)[*:2])N[*:1]

B1: N^ε1-[(4S)-4-carboxy-4-(19-carboxynonadecanoylamino)butanoyl]-[His14,Arg17,Pro21,Pro27,Pro34]-h-amylin (peptide)
peptide: K([γGlu-C20 diacid])CNTATCATQRLAHFLRHSSPNFGAIPSSTNVGPNTY-NH2
modifications: disulfide 2-7; N-terminus assumed
SMILES: CC[C@H](C)[C@H](NC(=O)[C@H](C)NC(=O)CNC(=O)[C@H](Cc1ccccc1)NC(=O)[C@H](CC(N)=O)NC(=O)[C@@H]1CCCN1C(=O)[C@H](CO)NC(=O)[C@H](CO)NC(=O)[C@H](Cc1c[nH]cn1)NC(=O)[C@H](CCCNC(=N)N)NC(=O)[C@H](CC(C)C)NC(=O)[C@H](Cc1ccccc1)NC(=O)[C@H](Cc1c[nH]cn1)NC(=O)[C@H](C)NC(=O)[C@H](CC(C)C)NC(=O)[C@H](CCCNC(=N)N)NC(=O)[C@H](CCC(N)=O)NC(=O)[C@@H](NC(=O)[C@H](C)NC(=O)[C@@H]1CSSC[C@H](NC(=O)[C@@H](N)CCCCNC(=O)CC[C@H](NC(=O)CCCCCCCCCCCCCCCCCCC(=O)O)C(=O)O)C(=O)N[C@@H](CC(N)=O)C(=O)N[C@@H]([C@@H](C)O)C(=O)N[C@@H](C)C(=O)N[C@@H]([C@@H](C)O)C(=O)N1)[C@@H](C)O)C(=O)N1CCC[C@H]1C(=O)N[C@@H](CO)C(=O)N[C@@H](CO)C(=O)N[C@H](C(=O)N[C@@H](CC(N)=O)C(=O)N[C@H](C(=O)NCC(=O)N1CCC[C@H]1C(=O)N[C@@H](CC(N)=O)C(=O)N[C@H](C(=O)N[C@@H](Cc1ccc(O)cc1)C(N)=O)[C@@H](C)O)C(C)C)[C@@H](C)O
notes: also called compound 67
Take B1: the “hAmylin-R funct. EC50” value in assay [1] was determined as 0.069 nM. Also, in assay [2], the “hCTR funct. EC50” value is 0.354 nM. Moreover, in assay [3], the IC50 – broadly, the midpoint of a concentration-inhibition curve – came to 0.09 nM.

B2: N^α1-[2-[2-[2-[[2-[2-[2-[[(4S)-4-carboxy-4-(19-carboxynonadecanoylamino)butanoyl]amino]ethoxy]ethoxy]acetyl]amino]ethoxy]ethoxy]acetyl]-[Arg17,Pro21,Pro27]-h-am … (peptide)
peptide: KCNTATCATQRLANFLRHSSPNFGAIPSSTNVGSNTY
modifications: alpha-amino group of N-terminal Lys1 acylated with C20 diacid via linker gGlu-2xOEG; disulfide bridge Cys2-Cys7 and C-terminal amide as in human amylin
notes: also called compound 24
For the molecule B2, the IC50 in assay [4] came to 1.14 nM. Further, in assay [5], the “Ratio hCT/hAmylin funct. (hCTR EC50 over hAmylin-R EC50)” value is 23.1 and the “hAmylin-R funct. EC50 (pM)” value amounted to 433 pM.
